Experimental findings from patent US20200255503A1 (Regeneron, published 2020) are described below.

The chains are these.
B1: H1M1234N (antibody, V domains shown)
VH: QVQLQQSGPGLVKSSQTLSLTCAISGDSVSSNSVAWNWIRQSPSRGLEWLGRTYYRSKWYNDYAVSVKSRININPDTSKNHFSLQLNSVTPEDTAVYFCARAWNWYYLDYWGQGTLVTVSS
VL: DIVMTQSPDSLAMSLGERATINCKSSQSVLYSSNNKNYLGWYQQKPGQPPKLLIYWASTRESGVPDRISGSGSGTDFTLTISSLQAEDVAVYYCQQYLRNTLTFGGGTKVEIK
notes: chimeric, human variable domains with mouse Fc (prefix H1M)
B2: H4H2864P (antibody, human IgG4, V domains shown)
VH: EVQLVESGGGLAQPGGSLRLSCAASGFTFNNYAMTWVRQAPGKGLDWVSAISDSGRSTFSADSVKGRFTISRDNSKNTLYLQMDSLRAEDTALYYCAKHRNWNYPVFDYWGQGTLVTVSS
VL: DIQLTQSPSFLSASVGDRVTITCWASQGISSYLAWYQQKPGKAPKLLIYSASTLQSGVPSRFSGSGSGTEFTLTISSLQPEDFATYYCQQLNSYPFTFGPGTKVDIK
notes: human IgG4 Fc (prefix H4H)
B3: H4H1616N (antibody, human IgG4, V domains shown)
VH: EVELLESGGGLVQPGGSLRLSCAASGFTFSSYAMSWVRQAPGKGLEWVSSISGRVGSTHFADSVKGRFTFSRDNSKNTLYLQLSSLRAEDTAVYYCARSRGAAYFDYWGQGTLVTVSS
VL: DIQMTQSPSSLSASVGDRVTITCQANQDISNFLNWYQQRPGKAPNLLIYAASNLETGVPSRFSGSGSGTDFTFTISSLQPEDIATYYCQHYDNFPFTFGPGTKVDIK
notes: human IgG4 Fc (prefix H4H)
B4: H1M1241N (antibody, V domains shown)
VH: EVQLVESGGGLVKPGGSLRLSCAASGFTFSSYSMNWVRQAPGKGLEWVSSISSRSSYIYYADSVKGRFTISRDNAKNSLYLQMNSLRAEDTAVYYCARDHIVVVPGASYYYYGMDVWGQGTTVTVSS
VL: DIQMTQSPSSLSASVGDRVTITCRASQGIRNDLGWYQQKPGKAPKRLISAASSLQSGVPSRFSGSGSGTEFTLTISSLQPEDFATYYCLQHNSYPLTFGGGTKVEIK
notes: as for B1
B5: H2M1236N (antibody, mouse IgG2, V domains shown)
VH: QVQLQESGPGLVKPSETLSLTCTVSGGSISNYYWSWIRQPPGKGLEWIGYIYYSGRTNYNPSLKSRVTISVDTSKNQFSLKLRSVTAADTAVYYCARHRITRTADSFDYWGQGTLVTVSS
VL: DIQMTQSPSSLSASVGDRVTITCQASQDITNYLNWYQQKPGKAPKLLIYDASNLETGVPSRFSGSGSGTDFTFTISSLQPEDVATFYCHQYGDLPYTFGQGTKLEIK
notes: chimeric, human variable domains with mouse IgG2 Fc (prefix H2M)
B6: H4H2597B (antibody, human IgG4, V domains shown)
VH: EVQLVESGGGLVQPGGSLRLSCAVSGFTFSNYAMNWVRQAPGKGLEWVSVISDSGRSTYYADSVKGRFTISRDNSKNTLYLQMNSLRAEDTAVYFCAKRYNWNLHYFDYWGQGTTVTVSS
VL: EIVLTQSPDFQSVTPKEKVTITCRASQSIGGSLHWYQQKPDQSPKLLIKYASQSFSGVPSRFSGSGSGTDFTLTINSLEAEDAATYYCLQSSSLRTFGQGTKVEIKR
notes: human IgG4 Fc (prefix H4H)
B7: H4H2606B (antibody, human IgG4, V domains shown)
VH: EVQLVESGGGLVKPGGSLRLSCAASGFTFSDYYMNWIRQAPGKGLEWVSYISSSGNSIYYADSVKGRFTISRDNAKNSLFLQMSSLRAEDTAVYYCARDGRYNDRRRGYYWGQGTLVTVSS
VL: EIVMTQSPDFQSVTPKEKVTITCRASQSIGSSLHWYQQKPDQSPKLLIKYASQSFSGVPSRFSGSGSGTDFTLTINSLEAEDAATYYCLQSSSLRTFGQGTKVEIKR
notes: human IgG4 Fc (prefix H4H)
B8: H1M1230N (antibody, V domains shown)
VH: EVQLVESGGGLVQPGGSLRLSCTASGFIFSNFWMTWVRQAPGKGLEWVANIKQDGSETYCVDSVKGRFTISRDHAKNSLFLQMNSLRAEDTAVYYCARGAGTIYYYGMDVWGQGTTVIVSS
VL: DIQMTQSPSSVSASVGDRLTITCRASQDISSWLTWYQQKPGKAPNLLIYAASGLQSGVPSRFSGSGSGTDFTLTISNLQPEDFATYYCQQANSFPLTFGQGTRLEIK
notes: as for B1
B9: H4H2636B (antibody, human IgG4, V domains shown)
VH: EVQLVESGGGLVQPGGSLRLSCAASGFTFSSYAMSWVRQAPGKGLEWVSAISGRGYNADYADSVKGRFTISRDNSKNTLYLQMNSLRAEDTAVYYCAKLEYFDYWGQGTTVTVSS
VL: DIQLTQSPSTLSASVGDRVTITCRASQSISSWLAWYQQKPGKAPKLLIYKASSLESGVPSRFSGSGSGTDFTLTISSLRPEDFATYYCQQYNSYPLTFGGGTKVEIKR
notes: human IgG4 Fc (prefix H4H)
B10: H4H2797P (antibody, human IgG4, V domains shown)
VH: QVQLVESGGGVVLPGRSLRLSCAASGFTFSSYLMYWVRQAPGKGLEWVAVIWYDGSNKFYGDSVKGRFTISRDNSKNTLYLQMNSLRAEDTAVYYCARDNGNSGYEDSWNAFDIWGQGTMVTVSS
VL: DIQMTQSPSSLSASVGDRVTITCRASQDIYNYLAWFQQKPGKAPKSLIYAASSLQTGVPSQFSGSGSGTDFTLTISSLQPEDFATYYCQQYNNYPFTFGPGTKVDIK
notes: human IgG4 Fc (prefix H4H)
B11: H4H2645P (antibody, human IgG4, V domains shown)
VH: EVQLVESGGGLVQPGGSLRLSCAASGFTFSTYAMHWVRQAPGKGLEWVSSISGRGRNSDHADSVKGRFTISRDNSKNTLYLQMNSLRAEDTAVYYCARTEYFHHWGQGTLVTVSS
VL: DIQMTQSPSSLSASVGDRITITCRASQDINNYLAWFQQKPGKAPKSLIYGASSLQSGVPSKFSGSGSGTDFTLTISSLQPEDFATYYCQQYSSYPFTFGPGTKVDIK
notes: human IgG4 Fc (prefix H4H)
B12: H4H2594S (antibody, human IgG4, V domains shown)
VH: EVQLVESGGGLVKPGGSLRLSCAASGFTFSDYYMNWIRQAPGKGLEWVSYISSSGSSIYYADSVKGRFTISRDNAKNSLYLLMNSLRAEDTAVYYCARDGKYNSSPGDYWGQGTLVTVSS
VL: DIQMTQSPSSLSASVGDRVTIACRASQGISNYLAWFQQKPGKAPKSLIYAASSLQSGVPSKFSGSGSGTDFTLTISSLQPEDFATYYCQQYNSYPLTFGGGTKVEIKR
notes: human IgG4 Fc (prefix H4H)
B13: H4H2607B (antibody, human IgG4, V domains shown)
VH: EVQLVESGGGLVKPGGSLRLSCAASGFTFSDYYMNWIRQAPGKGLEWISYLSSSGSATYYADSVKGRFTISRDNAKNSLYLQMNSLRAEDTAVYYCARDGKYNTVAGDYWGQGTTVTVSS
VL: DIQLTQSPSSLSASVGDRVTITCRASQGIRNDLGWYQQKPGKAPKRLIYAASSLQSGVPSRFSGSGSGTEFTLTISSLQPEDFATYYCLQHNSYPYTFGQGTKVEIKR
notes: human IgG4 Fc (prefix H4H)
B14: H2M1233N (antibody, mouse IgG2, V domains shown)
VH: QVVLVESGGGVVQPGRSLRLSCAASGFTFSSYGMHWVRQAPGKGLEWVAVIWYDGSNKYYVDSVKGRFTISRDNSNNTIYLQMNSLRAEDTAVYYCARSLIPVAGTDPIFGYWGQGTLVTVSS
VL: DIQMTQSPSTLSASVGDRVTITCRASQSVSSWLAWYQQKPGKAPKLLIFKASGLESGVPFRFSGSGSGTEFTLTISSLQPDDFATYYCQQYNTYSPTFGQGTKVEIK
notes: as for B5
B15: H2M1242N (antibody, mouse IgG2, V domains shown)
VH: EVQLVESGGGLVRPGGSLRLSCAASGFTFTSYAMNWVRQAPGKGLEWVSSISSYSSYIYIADSVKGRFTLSRDNAKNSLYLQMHSLRPEDTAVYFCAREGYSAYSYFDFWGRGTLVTVSS
VL: DIQMTQSPSTLSASVGDRVTITCRASQSVISWLAWYQQKPGKAPKLLIHRASSLESGVPSRFSGSGSGTEFTLTISGLQPDDFATYYCQQYNTYFPTFGQGTKVEVK
notes: as for B5
B16: H2M1237N (antibody, mouse IgG2, V domains shown)
VH: QVVLVESGGGVVQPGRSLRLSCAASGFTFSSYGMHWVRQAPGKGLEWVAVIWYDGSIKYYADSVKGRFTISRDNSNNTIYLQMNSLRAEDTAVYYCARALIPVAGTDPIFGYWGQGTLVTVSS
VL: DIQMTQSPSTLSASVGDRVTITCRASQSVSSWLAWYQQKPGKAPKLLIFKTSGLESGVPFRFSGSGSGTEFTLTISSLQPDDFATYYCQQYNTYSPTFGQGTKVEIK
notes: as for B5
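Also: rate constants obtained by fitting sensorgrams to a one-to-one binding model, Kd computed as koff over kon, half-life derived from koff.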

In the experiment the target is T1, Fel d1 (B-A)-mmH (cat (Felis domesticus)).
T1 construct: Expressed in CHO cells; also called rFel d1.mmH; rFel d1-mmH
T1 sequence (chain, as listed by the source limits assumed): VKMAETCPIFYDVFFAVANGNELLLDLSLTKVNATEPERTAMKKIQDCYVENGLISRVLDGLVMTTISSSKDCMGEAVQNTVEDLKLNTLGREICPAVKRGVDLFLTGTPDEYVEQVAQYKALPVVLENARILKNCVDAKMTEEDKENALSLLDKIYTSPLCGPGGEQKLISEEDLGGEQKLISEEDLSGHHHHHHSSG
The experiment is described as follows: SPR, mAb captured, Fel d1 (B-A)-mmH injected, 25 C. (In general: In SPR one partner is held on a chip, and binding of the other changes the refractive index at the surface.)
Description: Antibody-antigen association was monitored for 3 to 5 minutes, and the dissociation of antigen from the captured monoclonal antibody (in running buffer alone at 25° C.) was monitored for 10 or 15 minutes. Kinetic association (kₐ) and dissociation (kₐ) rate constants were determined by processing and fitting the data to a 1:1 binding model using Scrubber 2.0 curve fitting software. Binding dissociation equilibrium constants (KD) and dissociative half-lives (t_{1/2}) were calculated from the kinetic rate constants as: KD=kd/kₐ and t_{1/2}=ln(2)/kₐ.
Usually Kd stands for a measure of binding affinity in units of concentration. A low value points to a tighter complex. The koff is the first-order rate constant of dissociation. Read a low koff as slow dissociation. For orientation: kon means the rate constant with which the complex forms. On to B1, for which the Kd turned out to be 5580 pM, the koff came out at 0.00142 s⁻¹, the kon was 254000 M⁻¹ s⁻¹ and the t1/2 stood at 8 min.

Molecule B2 returned a Kd of 576 pM, a koff of 0.000309 s⁻¹, an association rate constant (kon) of 537000 M⁻¹ s⁻¹ and a t1/2 of 37 min.

For B3, the Kd is 8210 pM, the koff was 0.00188 s⁻¹, the on-rate (kon) came out at 229000 M⁻¹ s⁻¹ and the t1/2 was found to be 6 min.

Turning to B4, the affinity, expressed as Kd, was 331 pM; the koff worked out at 0.000112 s⁻¹; the kon was found to be 337000 M⁻¹ s⁻¹; the t1/2 was 104 min.

Molecule B5 had a Kd of 558 pM, a koff of 0.000232 s⁻¹, a kon of 415000 M⁻¹ s⁻¹ and a t1/2 of 50 min.

B6 had a Kd of 501 pM, a koff of 0.000558 s⁻¹, a kon of 1.12e+06 M⁻¹ s⁻¹ and a t1/2 of 21 min.

B7 returned a Kd of 388 pM, a koff of 0.000486 s⁻¹, a kon of 1.26e+06 M⁻¹ s⁻¹ and a t1/2 of 24 min.

With B8, the Kd is 1310 pM, the koff amounted to 0.00051 s⁻¹, the association rate constant (kon) was found to be 388000 M⁻¹ s⁻¹ and the t1/2 stood at 23 min.

Consider B9, for which binding was put at a Kd of 924 pM, the koff is 0.000228 s⁻¹, the kon is 247000 M⁻¹ s⁻¹ and the t1/2 was found to be 51 min.

Molecule B10 yielded a Kd of 4690 pM, a koff of 0.00205 s⁻¹, an association rate constant (kon) of 437000 M⁻¹ s⁻¹ and a t1/2 of 6 min.

In the case of B11, binding was characterised by a dissociation constant (Kd) of 368 pM, the koff stood at 0.000179 s⁻¹, the kon stood at 487000 M⁻¹ s⁻¹ and the t1/2 is 65 min.

Regarding B12, binding was put at a Kd of 402 pM, the koff was found to be 0.000521 s⁻¹, the kon came to 1.3e+06 M⁻¹ s⁻¹ and the t1/2 turned out to be 22 min.

Molecule B13 showed a Kd of 364 pM, a koff of 0.000563 s⁻¹, a kon of 1.55e+06 M⁻¹ s⁻¹ and a t1/2 of 21 min.

In the case of B14, the Kd amounted to 544 pM, the koff turned out to be 0.000166 s⁻¹, the kon came to 305000 M⁻¹ s⁻¹ and the t1/2 came out at 70 min.

B15 had a dissociation constant Kd of 449 pM, a koff of 0.000122 s⁻¹, a kon of 272000 M⁻¹ s⁻¹ and a t1/2 of 94 min.

In turn, B16 gave a Kd of 458 pM, a koff of 0.000165 s⁻¹, a kon of 359000 M⁻¹ s⁻¹ and a t1/2 of 70 min.
